According to patent US20240400614A1, “CLEAVABLE PEPTIDES AND METHODS OF USE THEREOF” (Bright Peak Therapeutics AG, priority 2023, published 2024):
Square brackets hold non-standard residues; d marks the D form. Ends that are not written are not given here. Tyr(3-NO2) = N[C@@H](Cc1ccc(O)c([N+](=O)[O-])c1)C(=O)O; 2Abz = Nc1ccccc1C(=O)O

Experiments:
Assay type in all cases: biochemical
[1] = target: uPA (Homo sapiens, UniProt P00749); test: FRET peptide cleavage efficiency with uPA
[2] = target: T1, MMP-2 (Homo sapiens, UniProt P08253); test: FRET peptide cleavage efficiency with MMP-2
T1 construct: purchased SIGMA PF023
T1 sequence (P08253 110-660): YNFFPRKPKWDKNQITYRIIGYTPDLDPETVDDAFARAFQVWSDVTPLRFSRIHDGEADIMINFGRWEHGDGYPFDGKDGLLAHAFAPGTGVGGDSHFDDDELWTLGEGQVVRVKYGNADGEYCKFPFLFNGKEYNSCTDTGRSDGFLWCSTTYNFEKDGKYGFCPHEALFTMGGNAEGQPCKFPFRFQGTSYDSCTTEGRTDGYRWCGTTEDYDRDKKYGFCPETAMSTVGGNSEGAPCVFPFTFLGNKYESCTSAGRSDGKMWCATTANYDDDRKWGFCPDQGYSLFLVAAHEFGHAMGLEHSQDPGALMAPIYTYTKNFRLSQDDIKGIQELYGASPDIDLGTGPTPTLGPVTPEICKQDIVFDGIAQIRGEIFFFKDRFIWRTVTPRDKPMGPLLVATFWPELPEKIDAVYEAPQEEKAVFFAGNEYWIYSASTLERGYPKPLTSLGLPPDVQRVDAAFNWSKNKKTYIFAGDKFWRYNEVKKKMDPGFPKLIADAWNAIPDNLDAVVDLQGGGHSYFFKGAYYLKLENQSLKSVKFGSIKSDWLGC

[3] = target: T2, matriptase (Homo sapiens, UniProt Q9Y5Y6); test: FRET peptide cleavage efficiency with matriptase
T2 construct: purchased R&D Systems 3946-SEB
T2 sequence (Q9Y5Y6 615-855 limits assumed): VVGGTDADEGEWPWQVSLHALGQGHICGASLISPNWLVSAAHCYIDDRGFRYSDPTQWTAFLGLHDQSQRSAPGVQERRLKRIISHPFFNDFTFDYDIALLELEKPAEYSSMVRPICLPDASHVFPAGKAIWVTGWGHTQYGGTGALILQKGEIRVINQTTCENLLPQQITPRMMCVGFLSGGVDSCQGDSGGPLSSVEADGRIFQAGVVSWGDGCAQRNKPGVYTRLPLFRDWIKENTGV

[4] = target: T3, MMP-9 (Homo sapiens, UniProt P14780); test: FRET peptide cleavage efficiency with MMP-9 (standard pH 7.5; also pH 6.5)
T3 construct: purchased SIGMA PF024
T3 sequence (P14780 94-707): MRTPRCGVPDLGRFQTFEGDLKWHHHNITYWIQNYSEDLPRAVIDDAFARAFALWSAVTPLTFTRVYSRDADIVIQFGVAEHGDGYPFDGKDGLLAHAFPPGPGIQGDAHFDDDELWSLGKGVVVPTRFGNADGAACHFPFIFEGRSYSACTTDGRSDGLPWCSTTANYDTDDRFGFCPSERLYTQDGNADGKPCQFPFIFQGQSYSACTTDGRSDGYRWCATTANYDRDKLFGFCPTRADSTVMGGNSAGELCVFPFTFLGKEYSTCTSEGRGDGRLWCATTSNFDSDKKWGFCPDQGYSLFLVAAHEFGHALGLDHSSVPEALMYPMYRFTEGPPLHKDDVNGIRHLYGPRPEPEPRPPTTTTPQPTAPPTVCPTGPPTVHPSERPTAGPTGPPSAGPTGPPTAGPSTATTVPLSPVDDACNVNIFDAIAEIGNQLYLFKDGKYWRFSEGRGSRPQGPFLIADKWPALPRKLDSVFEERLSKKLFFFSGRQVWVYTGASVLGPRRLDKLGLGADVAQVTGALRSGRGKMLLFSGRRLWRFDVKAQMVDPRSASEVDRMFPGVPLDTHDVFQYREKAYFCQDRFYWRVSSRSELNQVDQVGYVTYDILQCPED

[5] = target: T4, MMP-7 (Homo sapiens, UniProt P09237); test: FRET peptide cleavage efficiency with MMP-7 (standard pH 7.5; also pH 6.5)
T4 construct: purchased SIGMA CC1059
T4 sequence (P09237 95-267): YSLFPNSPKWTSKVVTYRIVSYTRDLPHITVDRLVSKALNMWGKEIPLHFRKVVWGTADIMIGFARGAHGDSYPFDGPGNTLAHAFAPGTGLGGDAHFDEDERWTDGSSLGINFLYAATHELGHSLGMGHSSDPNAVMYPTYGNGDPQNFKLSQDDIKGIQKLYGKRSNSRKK

[6] = t = 60 min, standard conditions (Table 8)
[7] = t = 120 min, standard conditions (Table 8)
[8] = t = 15 min, standard conditions (Table 8)
[9] = 200 uM linker, 1 ug/ml protease, 37° C., buffer A pH 8.5
[10] = t = 60 min, 200 uM linker, 1 ug/ml protease, 37° C., buffer A pH 8.5
[11] = t = 120 min, 200 uM linker, 1 ug/ml protease, 37° C., buffer A pH 8.5
[12] = t = 15 min, 200 uM linker, 1 ug/ml protease, 37° C., buffer C pH 7.5
[13] = t = 60 min, 200 uM linker, 1 ug/ml protease, 37° C., buffer C pH 7.5
[14] = t = 120 min, 200 uM linker, 1 ug/ml protease, 37° C., buffer C pH 7.5
[15] = t = 15 min, 200 uM linker, 1 ug/ml protease, 37° C., buffer B pH 9.0
[16] = t = 60 min, 200 uM linker, 1 ug/ml protease, 37° C., buffer B pH 9.0
[17] = 200 uM linker, 1 ug/ml protease, 37° C., buffer B pH 9.0

## RGRKSPQPLVD ([2Abz]RGRKSPQPLVD[Tyr(3-NO2)]-NH2) [LNK040]
[1]; standard conditions (Table 8)
  % vcleavage uPA t = 15 min: 0%
[1]; [6]
  % cleavage uPA t = 60 min: 0%
[1]; [7]
  % cleavage uPA t = 120 min: 0%
[2]; t = 15 min (Table 9)
  % cleavage MMP-2 t = 15 min: 8%
[2]; t = 60 min (Table 9)
  % cleavage MMP-2 t = 60 min: 28%
[2]; [6]
  % cleavage MMP-2 t = 60 min: 28%
[2]; t = 120 min (Table 9)
  % cleavage MMP-2 t = 120 min: 47%
[2]; [7]
  % cleavage MMP-2 t = 120 min: 47%
[3]; [8]
  % cleavage Matriptase t = 15 min: 100%
[3]; [6]
  % cleavage Matriptase t = 60 min: 100%
[3]; standard conditions (Table 8)
  % cleavage Matriptase t = 120 min: 100%
[4]; t = 15 min (Table 9)
  % cleavage MMP-9 t = 15 min: 25%
[4]; [8]
  % cleavage MMP-9 t = 15 min: 25%
[4]; t = 60 min (Table 9)
  % cleavage MMP-9 t = 60 min: 69%
[4]; [6]
  % cleavage MMP-9 t = 60 min: 69%
[4]; t = 120 min (Table 9)
  % cleavage MMP-9 t = 120 min: 89%
[4]; [7]
  % cleavage MMP-9 t = 120 min: 89%
[5]; t = 15 min (Table 9)
  % cleavage MMP-7 t = 15 min: 29%
[5]; [8]
  % cleavage MMP-7 t = 15 min: 29%
[5]; t = 60 min (Table 9)
  % cleavage MMP-7 t = 60 min: 74%
[5]; [6]
  % cleavage MMP-7 t = 60 min: 74%
[5]; t = 120 min (Table 9)
  % cleavage MMP-7 t = 120 min: 93%
[5]; [7]
  % cleavage MMP-7 t = 120 min: 93%

## RQRRSPLGLAG ([2Abz]RQRRSPLGLAG[Tyr(3-NO2)]-NH2) [LNK010]
[1]; pH 6.5, t = 60 min (Table 7)
  % cleavage uPA t = 60 min: 0%
[1]; pH 6.5, t = 120 min (Table 7)
  % cleavage uPA t = 120 min: 0%
[1]; pH 7.5, t = 60 min (Table 7)
  % cleavage uPA t = 60 min: 0%
[1]; pH 7.5, t = 120 min (Table 7)
  % cleavage uPA t = 120 min: 0%
[1]; [9]
  % cleavage uPA t = 15 min: 0%
[1]; [10]
  % cleavage uPA t = 60 min: 1%
[1]; [11]
  % cleavage uPA t = 120 min: 2%
[2]; pH 6.5, t = 15 min (Table 7)
  % cleavage MMP-2 t = 15 min: 63%
[2]; pH 6.5, t = 60 min (Table 7)
  % cleavage MMP-2 t = 60 min: 100%
[2]; pH 7.5, t = 15 min (Table 7)
  % cleavage MMP-2 t = 15 min: 66%
[2]; pH 7.5, t = 60 min (Table 7)
  % cleavage MMP-2 t = 60 min: 100%
[2]; t = 15 min (Table 9)
  % cleavage MMP-2 t = 15 min: 67%
[2]; [12]
  % cleavage MMP-2 t = 15 min: 64%
[2]; t = 60 min (Table 9)
  % cleavage MMP-2 t = 60 min: 100%
[2]; [13]
  % cleavage MMP-2 t = 60 min: 99%
[2]; t = 120 min (Table 9)
  % cleavage MMP-2 t = 120 min: 100%
[2]; [14]
  % cleavage MMP-2 t = 120 min: 99%
[3]; pH 6.5, t = 15 min (Table 7)
  % cleavage Matriptase t = 15 min: 90%
[3]; pH 6.5, t = 60 min (Table 7)
  % cleavage Matriptase t = 60 min: 100%
[3]; pH 7.5, t = 15 min (Table 7)
  % cleavage Matriptase t = 15 min: 100%
[3]; pH 7.5, t = 60 min (Table 7)
  % cleavage Matriptase t = 60 min: 100%
[3]; [15]
  % cleavage Matriptase t = 15 min: 98%
[3]; [16]
  % cleavage Matriptase t = 60 min: 94%
[3]; [17]
  % cleavage Matriptase t = 120 min: 91%
[4]; t = 15 min (Table 9)
  % cleavage MMP-9 t = 15 min: 76%
[4]; t = 60 min (Table 9)
  % cleavage MMP-9 t = 60 min: 99%
[4]; t = 120 min (Table 9)
  % cleavage MMP-9 t = 120 min: 100%
[5]; t = 15 min (Table 9)
  % cleavage MMP-7 t = 15 min: 15%
[5]; t = 60 min (Table 9)
  % cleavage MMP-7 t = 60 min: 49%
[5]; t = 120 min (Table 9)
  % cleavage MMP-7 t = 120 min: 78%

## RGRRVANPLGLAGSG ([2Abz]RGRRVANPLGLAGSG[Tyr(3-NO2)]-NH2) [LNK050]
[1]; [9]
  % cleavage uPA t = 15 min: 1%
[1]; [10]
  % cleavage uPA t = 60 min: 3%
[1]; [11]
  % cleavage uPA t = 120 min: 6%
[2]; t = 15 min (Table 9)
  % cleavage MMP-2 t = 15 min: 54%
[2]; [12]
  % cleavage MMP-2 t = 15 min: 54%
[2]; t = 60 min (Table 9)
  % cleavage MMP-2 t = 60 min: 100%
[2]; [13]
  % cleavage MMP-2 t = 60 min: 100%
[2]; t = 120 min (Table 9)
  % cleavage MMP-2 t = 120 min: 100%
[2]; [14]
  % cleavage MMP-2 t = 120 min: 100%
[3]; [15]
  % cleavage Matriptase t = 15 min: 78%
[3]; [16]
  % cleavage Matriptase t = 60 min: 100%
[3]; [17]
  % cleavage Matriptase t = 120 min: 100%
[4]; t = 15 min (Table 9)
  % cleavage MMP-9 t = 15 min: 52%
[4]; t = 60 min (Table 9)
  % cleavage MMP-9 t = 60 min: 100%
[4]; t = 120 min (Table 9)
  % cleavage MMP-9 t = 120 min: 100%
[5]; t = 15 min (Table 9)
  % cleavage MMP-7 t = 15 min: 1%
[5]; t = 60 min (Table 9)
  % cleavage MMP-7 t = 60 min: 3%
[5]; t = 120 min (Table 9)
  % cleavage MMP-7 t = 120 min: 6%

## RGRKPQPLVD ([2Abz]RGRKPQPLVD[Tyr(3-NO2)]-NH2) [LNK039]
[1]; standard conditions (Table 8)
  % vcleavage uPA t = 15 min: 0%
[1]; [6]
  % cleavage uPA t = 60 min: 0%
[1]; [7]
  % cleavage uPA t = 120 min: 0%
[2]; t = 15 min (Table 9)
  % cleavage MMP-2 t = 15 min: 10%
[2]; t = 60 min (Table 9)
  % cleavage MMP-2 t = 60 min: 38%
[2]; [6]
  % cleavage MMP-2 t = 60 min: 38%
[2]; t = 120 min (Table 9)
  % cleavage MMP-2 t = 120 min: 61%
[2]; [7]
  % cleavage MMP-2 t = 120 min: 61%
[3]; [8]
  % cleavage Matriptase t = 15 min: 77%
[3]; [6]
  % cleavage Matriptase t = 60 min: 100%
[3]; standard conditions (Table 8)
  % cleavage Matriptase t = 120 min: 100%
[4]; t = 15 min (Table 9)
  % cleavage MMP-9 t = 15 min: 25%
[4]; [8]
  % cleavage MMP-9 t = 15 min: 25%
[4]; t = 60 min (Table 9)
  % cleavage MMP-9 t = 60 min: 74%
[4]; [6]
  % cleavage MMP-9 t = 60 min: 74%
[4]; t = 120 min (Table 9)
  % cleavage MMP-9 t = 120 min: 94%
[4]; [7]
  % cleavage MMP-9 t = 120 min: 94%
[5]; t = 15 min (Table 9)
  % cleavage MMP-7 t = 15 min: 35%
[5]; [8]
  % cleavage MMP-7 t = 15 min: 35%
[5]; t = 60 min (Table 9)
  % cleavage MMP-7 t = 60 min: 80%
[5]; [6]
  % cleavage MMP-7 t = 60 min: 80%
[5]; t = 120 min (Table 9)
  % cleavage MMP-7 t = 120 min: 96%
[5]; [7]
  % cleavage MMP-7 t = 120 min: 96%
